Reference: the nanobody polyreactivity screen of Harvey et al. (2022)

Assay: yeast display, Sf9 membrane polyspecificity reagent, FACS + sequencing; frameworks hold sequencing errors
Method in brief: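 Nanobodies from a synthetic yeast display library (Saccharomyces cerevisiae BJ5465), induced 36–48 hours with galactose, were stained 1 hour at 4 °C with 10% biotinylated, detergent-solubilized Sf9 membrane reagent, enriched on streptavidin microbeads, then FACS-sorted. Anti-HA (expression) and streptavidin (reagent binding) fluorescence set low and high (top ~1%) gates. Polyreactivity labels come from the gate of origin. Genes were colony-PCR amplified, MiSeq 2 × 250 sequenced and filtered by CDR length.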

| Sequence | polyreactivity (PSR sort gate) |
| --- | --- |
| QVQLVESGGGLVQAGGSLRLSCAASGSTFYIYAMGWYRQAPGKERELVAAINWRTGSTYYADSVKGRFTISRDNAKNTVYLQMNSLKPEDTAVYYCNAYTKHWSYWGQGTQVTVSS | high polyreactivity |
| QVQLVESGGGLVQAGGSLRLSCAASGSTFYIYAMGWYRQAPGKERELVAAITEGGGITYYADSVKGRFTISRDNAKNTVYLQMISLKPEDTAVYYCADVWGYYVLPYDYWGQGTQVTVSS | low polyreactivity |
| QVQLVESGGGLVQAGGSLRLSCAASGSTFYIYAMGWYRQAPGKERELVAAITWSGGSTYYADSVKGRFTISRDNAKNTVYLQMNSLKPEDTAVYYCAAQVWYSKSPTVDVYFDYDYWGQGTQVTVSS | low polyreactivity |
| QVQLVESGGGLVQAGGSLRLSCAASGSTFYKYAMGWYRQAPGKERELVASISRSGGSTSYADSVKGRFTISRDNAKNTVYLHMNSLIPEDTAVYYCAATWRQHPGSMGYWGQGTQVTVSS | high polyreactivity |
| QVQLVESGGGLVQAGGSLRLSCAASGSTFYKYAMGWYRQAPGKERELVASITWSGTSTYYADSVKGRFTISRDNAKNTVYLQMNSLKPEDTAVYYCNAGLEYYYWGYTWEFDYWGQGTQVTVSS | low polyreactivity |
| QVQLVESGGGLVQAGGSLRLSCAASGSTFYKYAMGWYRQAPGKERELVAVINYRGGSTYYADSVKGRFTISRDNAKNTVYLQMNSLKPEDTAVYYCAARQYWQNRRQYYYWGQGTQVTVSS | high polyreactivity |
| QVQLVESGGGLVQAGGSLRLSCAASGSTFYKYDMGWYRQAPGKEREFVAVISWSGGNTYYADSVKGRFTISRDNAKNNVYLQMNSLKPEDTAVYYCAADNYPDEYDYWGQGTQVTVSS | low polyreactivity |
| QVQLVESGGGLVQAGGSLRLSCAASGSTFYKYGMGWYRQAPGKERELVAAISGSGDSTYYADSVKGRFTISRDNAKNTVYLQMNSLKPEDTAVYYCNAGPWWYLHEYDYWGQGTQVTVSS | low polyreactivity |
| QVQLVESGGGLVQAGGSLRLSCAASGSTFYLNAKGWYRQAPGKERELVAASSSSGGSTYYADSVKGRFTISRDNAKNTVYLQMNSLKPEDTAVYYCACSCVPAVSVYGGDYWGQGTQVTVSS | low polyreactivity |
| QVQLVESGGGLVQAGGSLRLSCAASGSTFYLNAMGWYRQAPWKERELVASITWRGGSTYYADSVKGRFTISRDNAKNTVYLQMNSLKPEDTGVYYCAADATRLRTRYKRDYWGQGSQVTVSS | high polyreactivity |
| QVQLVESGGGLVQAGGSLRLSCAASGSTFYLNDMGWYRQAPGKERELVAAIDWSGGSTYYAVSVKGRFTISRDNAKNTVYLQMNSLKPEDTAVYYCAARLVYEWRRLDYFIAWDYWGQGTQVTVSS | low polyreactivity |
| QVQLVESGGGLVQAGGSLRLSCAASGSTFYLYAMGWYRPAPGKERELVASITSGDGSTYYADSVKGRFTISRDNAKNTVYLQMNSLKPEDTAVYYCNAVLEGWFYQYDYWGQGTQVTVSS | low polyreactivity |
| QVQLVESGGGLVQAGGSLRLSCAASGSTFYLYAMGWYRQAPGKERELVASITSGDGSTYYADSVKGRFTISRDNAKNTVYLQMNSLKPEDTAVYYCNAVLEGWFYQYDYWGQGTQVTVSS | low polyreactivity |
| QVQLVESGGGLVQAGGSLRLSCAASGSTFYLYAMGWYRQAPWKEREFVARITWSGGSTYYADSVKGRFTISRDNAKNTVYLQMNSLKPEDTAVYYCNATKTGPATVRYYYWGQGTQVTVSS | high polyreactivity |
| QVQLVESGGGLVQAGGSLRLSCAASGSTFYLYDMGWYRQAPGKEREMVAAISWSSGSTYYADSVKGRFTISRDNAKNTVYLQMNSLKPEETAVYYCAAGPSDTEYWLFDYWGQGTQVTVSS | high polyreactivity |
| QVQLVESGGGLVQAGGSLRLSCAASGSTFYNNAMGWYRQAPGKERELVAAITRTGGRTYYADSVKGRFTISRDNAKNTVYLQMNSLKPEDTAVYYCAALRYGQGSISAFDYWGQGTQVTVSS | high polyreactivity |
| QVQLVESGGGLVQAGGSLRLSCAASGSTFYNYALGWYRQAPGKERELVAAIRRSGGSTYYADSVKGRFTISRDNAKNTVYFQMNSLKPEDTAVYYCAASYYTRGYWGQGTQVTVSS | high polyreactivity |
| QVQLVESGGGLVQAGGSLRLSCAASGSTFYPKAKAWNRQAPGKERELVAGISSGGGTYYADSVKGRFTISRDNAKNTVYLQMNSLKREDTAVYYCNAYFLSSSLDYWGQGTQVTVSS | low polyreactivity |
| QVQLVESGGGLVQAGGSLRLSCAASGSTFYPNAMGWSRQAPGKERELVAAISRGTRTKYADSVKGRFTISRDNAKNTVYLQMKSLKPEDTAVYYCAADTGTGLDWGQGTQVTVSS | high polyreactivity |
| QVQLVESGGGLVQAGGSLRLSCAASGSTFYPNAMGWYRQAPGKERELVARISGRGGRTYYADSVKGRFTISRDNAKNTVYLLMNSLKPEDTAVYYCSKDPSSDLDYDYWGQGTQVTVSS | low polyreactivity |
| QVQLVESGGGLVQAGGSLRLSCAASGSTFYPNPMGWYRQAPGKERELVAAISQRGGRTYYADSVKGRFTISRDNAKNTVYLQMNSLKPEDTAVYYCAATYQGYNSWYSFGYWGQGTQVTVSS | high polyreactivity |

| Sequence | polyreactivity (PSR sort gate) |
| --- | --- |
| QVQLVESGGGLVQAGGSLRLSCAASGSTFYPYAMGWYRQAPGKERELVAAISSRDGRTYYADSVKGRFTISRDNAKNTVYLQMNSLKPEDTAVYYCAAVRALRKVRDYYYWGQGTQVTVSS | high polyreactivity |
| QVQLVESGGGLVQAGGSLRLSCAASGSTFYPYAMGWYRQAPGKEWEFVADITKRGGSTYYADSVKGRFTISRDNAKNTVYLQMNSLKPEDTAVYYCNAYNYDLVYPQYDYWGQGTQVTVSS | low polyreactivity |
| QVQLVESGGGLVQAGGSLRLSCAASGSTFYQNAMGWYRQAPGKERELVAAISRSGGGTYYADSVKGRFTISRDNAKNTVYLQMNSLKPEDTAVYYCAVRPTYNSWTRSTSRYYYWGQGTQVTVSS | high polyreactivity |
| QVQLVESGGGLVQAGGSLRLSCAASGSTFYQNAMGWYRQAPGKERELVAAISSRGGSTYYADSVKGRFTISRDNAKNTVYLQMNSLKPEDTAVYYCNTGRGSEMDYWGQGTQVTVSS | high polyreactivity |
| QVQLVESGGGLVQAGGSLRLSCAASGSTFYQNAMGWYRQAPGKERELVAAISSSGRTYYADSVKGRFTISRDNAKNTVYLQMNSLKPEDTAVYYCAVGAYGSLYSIRVAYGSMDYWGQGTQVTVSS | high polyreactivity |
| QVQLVESGGGLVQAGGSLRLSCAASGSTFYQYAMGWYRQAPGKERELVAAISKSGGSTYYADSVKGRFTISRDYSKNTVYLQMNSLKPDDTSVYYCATRWIKGRKMDYWGQGTQVTVSS | high polyreactivity |
| QVQLVESGGGLVQAGGSLRLSCAASGSTFYQYVMGWYRQAPGKERELVAAISGSGGSTYYADSVKGRFTISRDNAKTTVYLQMNSLKPEDTAVYYCAAVGRSKRDGYWGQGTQVTVSS | high polyreactivity |
| QVQLVESGGGLVQAGGSLRLSCAASGSTFYRNAMGWYRQAPGKEREFVATINRGGSTYYADSVKGRFTISRDNAKNTVYLQMNSLKPEDTAVYYCNAKYKQRHGYSAVTSYATYDYWGQGTQVTVSS | high polyreactivity |
| QVQLVESGGGLVQAGGSLRLSCAASGSTFYRNAMGWYRQAPGKERELVATITFNGGSTYYADSVKGRFTISRDNAKNTVYLQMNSLKPEDTAVYYCAKSHAIYYWWDESWGQGTQVTVSS | low polyreactivity |
| QVQLVESGGGLVQAGGSLRLSCAASGSTFYRNGMGWYRQAPGKERELVAGIDRSGGSTYYADSVKGRFTISRDNAKNTVYLQMNSLKPEDTAVYYCAAQNGYYPQHDYWGQGTQVTVSS | high polyreactivity |
| QVQLVESGGGLVQAGGSLRLSCAASGSTFYRYAMGWYRQAPGKEREFVAAITGSGGRTYYADSVKGRFTISRDNAKNTVYLQMNSLKPEDTAVYYCAARYYYFYQISYRYDYWGQGTQVTVSS | high polyreactivity |
| QVQLVESGGGLVQAGGSLRLSCAASGSTFYRYAMGWYRQAPGKERELVAAIRGSGGRTYYADSVKGRFTISRDNAKNTVYLQMNSLKPEDTAVYYCAAYRGVSQKGDYWGEGTQVTVSS | high polyreactivity |
| QVQLVESGGGLVQAGGSLRLSCAASGSTFYRYAMGWYRQAPGKERELVAAISTRSGSTYYADSVKGRFTISRDNAKNTVYLQMNSLKPEDTAVYYCAADGHKKTARKYYYWGQGTQVTVSS | low polyreactivity |
| QVQLVESGGGLVQAGGSLRLSCAASGSTFYRYAMGWYRQAPGKERELVAAITSAGSTNYADSVKGRFTISRDNGNNTVYLQMYSLKPVDTAVYYCAADHGRPYFSYDYWGQGSQVTVSS | low polyreactivity |
| QVQLVESGGGLVQAGGSLRLSCAASGSTFYRYAMGWYRQAPGKERELVATISWTDGRTNYADSVKGRFTISRDNAKNPVYLQMNSLKPEDTAVYDCAARRYRRWYDYWGQGTQVTVSS | high polyreactivity |
| QVQLVESGGGLVQAGGSLRLSCAASGSTFYRYVMGWYRQAPGKERELVAAISKSDGSTYYADSVKGRFTISRDNAKNTVYLQMNSLIPEDTAVYYCAADGSKWDWWEYEYWGQGTQVTVSS | high polyreactivity |
| QVQLVESGGGLVQAGGSLRLSCAASGSTFYSNAMGWYRQAPGKERELVAAISSTGSSTYYADSVKGRFTISRDNAKNTVYLQMNSLKPEDTAVYYCATDYYQSYWPATYDYWGQGTQVTVSS | low polyreactivity |
| QVQLVESGGGLVQAGGSLRLSCAASGSTFYSNAMGWYRQAPGKERELVATISFRGGRTYYADSVKGRFTISRDNAMNTVYLQMNSLKPEDTAVYYCNAEVSGYPYTYGYRGQGTQVTVSS | low polyreactivity |
| QVQLVESGGGLVQAGGSLRLSCAASGSTFYSNAMGWYRQAPRKERELVASISWSSGSTYYADSVKGRFTISRDNAKNTVYLQMNSLKPEDTAVYYCATDAGGPYRFGYWGQGTQVTVSS | low polyreactivity |
| QVQLVESGGGLVQAGGSLRLSCAASGSTFYSNVMGWYRQAPGKEREFVAGISGSGGSTYYADSVKGRFTISRDNAKNTVYLQMNSLKPEDTAVYYCAKYRYSRYFRYDYWGQCTQVTVSS | high polyreactivity |
